In IntAct's records for PubMed 25150978:

Target: arhg7_human ARHGEF7 (UniProt Q14155)

## Ras-related C3 botulinum toxin substrate 1 (Homo sapiens) (from UniProt P63000-1) G15A
  effect of a mutation on the interaction: increasing interaction strength
